Source: the DeepSol protein solubility set

assay: soluble on expression in E. coli; label from the status in PepcDB or PDB records

| Sequence | soluble on expression in E. coli |
| --- | --- |
| MGSDKIHHHHHHMNELTKQLQEIMVPKAALIAYEYQEGHYASGSHYLELRPINKKGRMEAGIPVTYEFMDSLVESYSDGNRRIPHGWLPPNMLWCDTRRGHESYVWYNPPGKRRMFFKNDLNIGDGMFHVPGVIYIIKNERMDIFAYKGKKPDGRTPLYLAPFFNVTGGNVCLGNSTLEKPESLDFHTLLEYWEKRFWLSEFSHLGGGKNPTRNNLVLVTERMREQPFDNDELQPINKRLKDILP | not soluble |
| MGSDKIHHHHHHDGKFTLGAGVGVVEHPYKQYDADVYPVPVISYESENFWFHGLGGGYYLWNDTNDKLSITAYWSPMYFKPGDSDSEQMRRLDKRKSTVMAGLSYVHNTPYGFLRTTIAGDTLDNSNGINWDLAWLYRYTNGNLTLTPGIGVEWNSDNQNEYYYGVSRHESRRSGMRSYDPDSSWNPYLELSANYRFLGDWSVYGVARYTRLSDEITDSPMVDKSWSGLISTGITYTF | not soluble |
| MTKIIKNGTIVTATDTYEAHLLIKDGKIAMIGQNLEEKGAEVIDAKGCYVFPGGIDPHTHLDMPLGGTVTKDDFESGTIAAAFGGTTTIIDFCLTNKGEPLKKAIETWHNKANGKAVIDYGFHLMISEITDDVLEELPKVLEEEGITSLKVFMAYKNVFQADDGTLYCTLLAAKELGALVMVHAENGDVIDYLTKKALADGNTDPIYHALTRPPELEGEATGRACQLTELAGSQLYVVHVTCAQAVEKIAEARNKGLDVWGETCPQYLVLDQSYLEKPNFEGAKYVWSPPLREKWHQEVLWNALKNGQLQTLGSDQCSFDFKGQKELGRGDFTKIPNGGPIIEDRVSILFSEGVKKGRITLNQFVDIVSTRIAKLFGLFPKKGTIVVGSDADLVIFDPNIERVISAETHHMAVDYNAFEGMKVTGEPVSVLCRGEFVVRDKQFVGKPGYGQYLKRAKYGT | soluble |
| PQFHLWKRPVVTAHIEGQPVEVLLDTGADDSIVTGIELGPHYTPKIVGGIGGFINTKEYKNVEVEVLGKRIKGTIMTGDTPINIFGRNLLTALGMSLNF | soluble |
| MGHHHHHHSHMINQRMIHMKNTKLLLAIATSAALLTGCQNTHGIDTNMAISSGLNAYKAATLSDADAKAIANQGCAEMDSGNQVASKSSKYGKRLAKIAKALGNNINGTPVNYKVYMTSDVNAWAMANGCVRVYSGLMDMMNDNEIEGVLGHELGHVALGHSLAEMKASYAIVAARDAISATSGVASQLSRSQLGDIAEGAINAKYSRDKESEADDFSFDLLKKRGISTQGLVGSFETLASLDGGRTQSMFDSHPPSTERAQHIRDRIASGK | not soluble |
| MKLGYSLSKSNAKNFKFYINGSAMGYKNIIINGAKSWNASPYLNTVSKGRDANPHFIISSSTIDRGATVAVCETWAYKGSKLVAKNEITTFKAFRSLSVGDKTETIAHEFGHGLGLGHVKTKNAIMLDVGFTKKIKPQRDDLNGIKAIYKLEHHHHHH | not soluble |
| MPRRAPAFPLSDIKAQMLFANNIKAQQASKRSFKEGAIETYEGLLSVDPRFLSFKNELSRYLTDHFPANVDEYGRVYGNGVRTNFFGMRHMNGFPMIPATWPLASNLKKRADADLADGPVSERDNLLFRAAVRLMFSDLEPVPLKIRKGSSTCIPYFSNDMGTKIEIAERALEKAEEAGNLMLQGKFDDAYQLHQMGGAYYVVYRAQSTDAITLDPKTGKFVSKDRMVADFEYAVTGGEQGSLFAASKDASRLKEQYGIDVPDGFFCERRRTAMGGPFALNAPIMAVAQPVRNKIYSKYAYTFHHTTRLNKEEKVKEWSLCVATDVSDHDTFWPGWLRDLICDELLNMGYAPWWVKLFETSLKLPVYVGAPAPEQGHTLLGDPSNPDLEVGLSSGQGATDLMGTLLMSITYLVMQLDHTAPHLNSRIKDMPSACRFLDSYWQGHEEIRQISKSDDAMLGWTKGRALVGGHRLFEMLKEGKVNPSPYMKISYQHGGAFLGDILLYDSRREPGSAIFVGNINSMLNNQFSPEYGVQSGVRDRSKRKRPFPGLAWASMKDTYGACPIYSDVLEAIERCWWNAFGESYRAYREDMLKRDTLELSRYVASMARQAGLAELTPIDLEVLADPNKLQYKWTEADVSANIHEVLMHGVSVEKTERFLRSVMPR | soluble |
| RDPIGYEKMFSKLRGGIVHARETAKRIAASPIVEQEGELCFTLYNAVGDSVLTSTGIIIHVGTMGSAIKYMVENNWEDNPGINDKDIFTNNDCAIGNVHPCDIMTLVPIFHDEKLIGWVGGVTHVIDTGSVTPGSMSTGQVQRFGDGYMITCRKTGANDESFKDWLHESQRSVRTPKYWILDERTRIAGCHMIRDLVMEVIKEDGIDSYMRFIDEVIEEGRRGLISRIKSMTIPGKYRKVAFVDVPYAHKDIGVCSEFAKLDTIMHSPVEITINKDATWKLDFDGASRWGWHSFNCNQVSFTSGIWVMMTQTLIPTSRINDGAYFATQFRLKKGTWMNPDDRRTGHAYAWHFLVSGWSALWRGLSQAYYSRGYLEEVNSGNANTSNWLQGGGINQDGEIHAVNSFETSSCGTGACAIKDGLNHAAAIWNPEGDMGDVEIWEMAEPLLYLGRNVKANTGGYGKYRGGNGFETLRMVWGAHDWTMFFMGNGYMNSDWGMMGGYPAASGYRFEAHNTDLKNRIKNNASLPLGGDFNPTDRDYEKHISHASQVKRDKQCITTENCFDNYDLYLNYIKGGPGFGDPIERDLNAILEDLNSKQL | not soluble |
| MRALIIVDVQNDFCEGGSLAVTGGAALARAISDYLAEAADYHHVVATKDFHIDPGDHFSGTPDYSSSWPPHCVSGTPGADFHPSLDTSAIEAVFYKGAYTGAYSGFEGVDENGTPLLNWLRQRGVDEVDVVGIATDHCVRQTAEDAVRNGLATRVLVDLTAGVSADTTVAALEEMRTASVELVCSS | soluble |
| MKFPKDFMIGYSSSPFQFEAGIPGSEDPNSDWWVWVHDPENTAAGLVSGDFPENGPGYWNLNQNDHDLAEKLGVNTIRVGVEWSRIFPKPTFNVKVPVERDENGSIVHVDVDDKAVERLDELANKEAVNHYVEMYKDWVERGRKLILNLYHWPLPLWLHNPIMVRRMGPDRAPSGWLNEESVVEFAKYAAYIAWKMGELPVMWSTMNEPNVVYEQGYMFVKGGFPPGYLSLEAADKARRNMIQAHARAYDNIKRFSKKPVGLIYAFQWFELLEGPAEVFDKFKSSKLYYFTDIVSKGSSIINVEYRRDLANRLDWLGVNYYSRLVYKIVDDKPIILHGYGFLCTPGGISPAENPCSDFGWEVYPEGLYLLLKELYNRYGVDLIVTENGVSDSRDALRPAYLVSHVYSVWKAANEGIPVKGYLHWSLTDNYEWAQGFRQKFGLVMVDFKTKKRYLRPSALVFREIATHNGIPDELQHLTLIQ | soluble |
| GSHSMRYFYTAVSRPGRGEPHFIAVGYVDDTQFVRFDSDAASPRGEPRAPWVEQEGPEYWDRETQKYKRQAQTDRVSLRNLRGYYNQSEAGSHIIQRMYGCDVGPDGRLLRGYDQYAYDGKDYIALNEDLRSWTAADTAAQITQRKWEAAREAEQLRAYLEGLCVEWLRRYLKNGKETLQRAEHPKTHVTHHPVSDHEATLRCWALGFYPAEITLTWQWDGEDQTQDTELVETRPAGDGTFQKWAAVVVPSGEEQRYTCHVQHEGLPEPLTLRWEPSS | soluble |
| MLKKLSPIFSNITGVVRYQDLAYVASVSDEIQEQNIAHSYVTEWDCGTWCVAGEDDDMLPWEIVSATVVHEPVEQALFLGARGQVFCMGSGDIHEEQLPDGDDAIGGRGNMRGVACIDGVAYACGMDRQVYRRFDENDWRAIDTGARPPAGSEAVVGFEAIGGFGAREIYAVGWDGEIWQYDGKRWQPRESPTNLILTAICCAEDGSVYACGQAGTLLRGRNDHWEIIAQDDVDEDLWSLAWFDGALYVSSATAVYTLVGGHLKEVDFGDEQPQRCFHLSAADGVLWSIAAKDIFSFDGQQWTRID | not soluble |
| MGSDKIHHHHHHNRDPHEGERGLTVAIDNTQCPDVPIGAIKLYIYGTGGNLYATYNYADARGIASVLHPLEAGHYTVAVVINADEEAAETSTLTALHEWLEIEMSHETNLLSGIAEVNVTEDGISPVTVFLQRGVFTLSTLRLQLTLPAPKLPDYTPEKSKTRAAGTANTIRCVAELCKAGTDIVVLHKAVTPVPQADGTYLVELELAEGSYDLRLWTDYARADNPLADTFYHTESLKAVTIVTKPYTANTDAKDAAYYNKSDITLSKEGATMNVQLQRPLAKYRLIAKDVENYRKLMEAKPDIYPPLKNLTVKVLYEGYFPSGFNVSTGKPNDAVGGISYSQVSLHYNDVDNEVLLGGDWVLVNGTESLVNVTVTVTDNLGNTLCRASGVKINYRNSHLTTVYGNFLTAGINKGGIDINTEWSGIYNVWF | not soluble |
| MSISTEQTILTQLKTIRTKRASTTGEQKWLQQHITEANLRRLLPDISIVGLHLLSELEAGPQTGIDLATNLGVTRGGVTRAAKRLVTQGLIGSFQQPDDHKKIFYRLTPSGRKLARYHDKMHATRNHQAITLLHEHYSPAELAVIQRFLADLTDYEA | not soluble |
| MSLITLYHCHGARSFRPLWMLEEMGLDYELKMLPFPPRVFAKEYLAINPLGTIPFMIDGDTKMTESSGICQYLGTRHGPTPLVVGVDDPAYGAYLNWMFFSDATLTFPQTLVLRYGTLEPNERRQPQVVEDYAKWFLGRLRAVEVAAGQGDYLCAGRFTAADVVNGYALRLASNLGLAKDFGPNVTAYWARLQQRDGYQRALEAETRAGEAQQVPKRAEGHHHHHH | soluble |
| MGSDKIHHHHHHMDNKKPKIITIASIKGGVGKSTSAIIMATLLAKEHKVLLIDMDTQASTTSYFYKEILNQNIDIVKINVYRVLKEKIDINDSIVKIKENLDLIPSYLTLNKFLSESIPLKELRLQNNLEFLKRRYHYVIIDTNPSLDYTLSNALMTSNCIIVPMTAEKWAVESLELLEFHMNNLKIKIPIFLVITRFKKNNTHKQLLQHVESKTGFLGFIHEREDLNKKIAKNEEFDMTKDYINEYKGVLSRFLIVYDEYVK | not soluble |
| EEILGSLFLKKKKKKKKKKSRNHRYFALLLPIRKMKKFFDSRREQGGSGLGSGSSGGGGSTSGLGSGYIGRVFGIGRQQVTVDEVLAEGGFAIVFLVRTSNGMKCALKRMFVNNEHDLQVCKREIQIMRDLSGHKNIVGYIDSSINNVSSGDVWEVLILMDFCRGGQVVNLMNQRLQTGFTENEVLQIFCDTCEAVARLHQCKTPIIHRDLKVENILLHDRGHYVLCDFGSATNKFQNPQTEGVNAVEDEIKKYTTLSYRAPEMVNLYSGKIITTKADIWALGCLLYKLCYFTLPFGESQVAICDGNFTIPDNSRYSQDMHCLIRYMLEPDPDKRPDIYQVSYFSFKLLKKECPIPNVQNSPIPAKLPEPVKASEAAAKKTQPKARLTDPIPTTETSIAPRQRPKAGQTQPNPGILPIQPALTPRKRATVQPPPQAAGSSNQPGLLASVPQPKPQAPPSQPLPQTQAKQPQAPPTPQQTPSTQAQGLPAQAQATPQHQQQLFLKQQQQQQQPPPAQQQPAGTFYQQQQAQTQQFQAVHPATQQPAIAQFPVVSQGGSQQQLMQNFYQQQQQQQQQQQQQQLATALHQQQLMTQQAALQQKPTMAAGQQPQPQPAAAPQPAPAQEPAIQAPVRQQPKVQTTPPPAVQGQKVGSLTPPSSPKTQRAGHRRILSDVTHSAVFGVPASKSTQLLQAAAAEASLNKSKSATTTPSGSPRTSQQNVYNPSEGSTWNPFDDDNFSKLTAEELLNKDFAKLGEGKHPEKLGGSAESLIPGFQSTQGDAFATTSFSAGTAEKRKGGQTVDSGLPLLSVSDPFIPLQVPDAPEKLIEGLKSPDTSLLLPDLLPMTDPFGSTSDAVIGKVIISVSSVMHDMCACFKNDKYLVNQSLGNSPATPEAKAI | soluble |
| MSLDNFLTTGFLDIIPLSQPLEFRREGLQHGVLDKLRSGKYPQQASLNLLRQPVEECRKMMFSFIQQAMADGLRNVLIIHGKGREDKSHANIVRSYVARWLTEFDDVQAYCTALPHHGGSGACYVALRKTAQAKQENWERHAKRSREGHHHHHH | not soluble |
